Experiment: soluble on expression in E. coli; label from the status in PepcDB or PDB records
In the case of “MSQYSENIIIGAGAAGLFCAAQLAKLGKSVTVFDNGKKIGRKILMSGGGFCNFTNLEVTPAHYLSQNPHFVKSALARYTNWDFISLVAEQGITYHEKELGQLFCDEGAEQIVEMLKSECDKYGAKILLRSEVSQVERIQNDEKVRFVLQVNSTQWQCKNLIVATGGLSMPGLGATPFGYQIAEQFGIPVIPPRASLVPFTYRETDKFLTALSGISLPVTITALCGKSFYNQLLFTHRGISGPAVLQISNYWQPTESVEIDLLPNHNVEEEINQAKQSSPKQMLKTILVRLLPKKLVELWIEQGIVQDEVIANISKVRVKNLVDFIHHWEFTPNGTEGYRTAEVTMGGVDTKVISSKTMESNQVSGLYFIGEVLDVTGWLGGYNFQWAWSSAYACALSISRQ”, the “soluble on expression in E. coli” value is reported as “soluble”.
With “MGSDKIHHHHHHMQKHARVIYNPTSGREIIKKNLADVLSILEQAGYVTSAHATTAEPDDAKHAAEEAVRNRFDLVVAAGGDGTINEVINGIAEKEYRPKVGIIPTGTTNDFARALHVPRDVIKATKIIAAGQSVAMDIGKANETYFINIGGGGRLTELTYDVPSRLKTMLGQLAYYLKGIEMLPSLKATKVKVEYDQGVFEGEVMFFLLGLTNSIGGFEKIAPDAKLDDGKFSLIIVKKVNLAEFIRLVTLALRGDHIKEPNVIYVKSEKVIVNSEDKMLINLDGELGGETPMEFRNLRQHIEFFASVDDIPATDLFIKENS” the “soluble on expression in E. coli” value was “not soluble”.
In the case of “SRDSAFRERLLRLAPKYPLVLAVSGGGDSVALALLVKEAGRQAVVAHLDHGLRPESPLDQAFVRALAERLGFPFFTERVEVARIAQARGENLEAVAREVRYAFLHRVAREVGARAILTAHTLDDQAETVLLQLLQGTARATGIREREGIVVRPLLAHTREELRAYLRARGEAWREDPTNQDPALDRNFLRLFVFPLLEERFPAAKRALARFAEARAEEEGVLERQAEARLLPDPRFFVPAFRAAPLLEAPLAVRRRALRRLLEKLGLRPEARLVLLLEEALRGRPQTLPGGVLARRKGGTLFLLPPRPRLPLPPGFRRPAPGDYLERPSGRKRLVDFLAEKGVPRELKPLWPVRAEGNRVVEVLGLYPPPPEEAHMAEALAEAASAFREGEVPVGAVLVLPGRVLRAHNRVEGLRDPTAHAEMLLLREAGPEARGGRLYVTLEPCLMCHHALAQAGVEVVYGAENLKEGALTRFGLPTRARGGVRERECAKLLRDFFARLREGCRSG”, the “soluble on expression in E. coli” value is reported as “soluble”.
In the case of “MGSDKIHHHHHHMKKMKIGTQNQAFFPENILEKFRYIKEMGFDGFEIDGKLLVNNIEEVKAAIKETGLPVTTACGGYDGWIGDFIEERRLNGLKQIERILEALAEVGGKGIVVPAAWGMFTFRLPPMTSPRSLDGDRKMVSDSLRVLEQVAARTGTVVYLEPLNRYQDHMINTLADARRYIVENDLKHVQIIGDFYHMNIEEDNLAQALHDNRDLLGHVHIADNHRYQPGSGTLDFHALFEQLRADNYQGYVVYEGRIRAEDPAQAYRDSLAWLRTC”, the “soluble on expression in E. coli” value is reported as “not soluble”.
For “MGHHHHHHSHQHLEVRDEVAEKCQKLFLDFLEEFQSSDGEIKYLQLAEELIRPERNTLVVSFVDLEQFNQQLSTTIQEEFYRVYPYLCRALKTFVKDRKEIPLAKDFYVAFQDLPTRHKIRELTSSRIGLLTRISGQVVRTHPVHPELVSGTFLCLDCQTVIRDVEQQFKYTQPNICRNPVCANRRRFLLDTNKSRFVDFQKVRIQETQAELPRGSIPRSLEVILRAEAVESAQAGDKCDFTGTLIVVPDVSKLSTPGARAETNSRVSGVDGYETEGIRGL”, the “soluble on expression in E. coli” value was “not soluble”.
With “SNAMKPENKIPVLTRLSDEMTAVVNFQQPGLPPWPADGDIETQRQYYLLERRFWNADAPSMTTRTCAVPTPYGDVTTRLYSPQPTSQATLYYLHGGGFILGNLDTHDRIMRLLARYTGCTVIGIDYSLSPQARYPQAIEETVAVCSYFSQHADEYSLNVEKIGFAGDSAGAMLALASALWLRDKHIRCGNVIAILLWYGLYGLQDSVSRRLFGGAWDGLTREDLDMYEKAYLRNDEDRESPWYCLFNNDLTRDVPPCFIASAEFDPLIDDSRLLHQTLQAHQQPCEYKMYPGTLHAFLHYSRMMTIADDALQDGARFFMARMKTPR” the “soluble on expression in E. coli” value was “soluble”.
In the case of “MGSDKIHHHHHHMSDGRLTALFPAFPHPASNQPVFAEASPHDDELMTQAVPQVSCQQALAIAQQEYGLSGQMSLLQGERDVNFCLTVTPDERYMLKVINAAEPADVSNFQTALLLHLARQAPELPVPRIRSTKAGQSETGVEIDGVLLRVRLVSYLAGMPQYLASPSTALMPQLGGTLAQLDNALHSFTHPAANRALLWDISRAEQVRPYLDFVSEPQQYQHLQRIFDRYDSNVAPLLTTLRRQVIHNDLNPHNVLVDGSSPTRVTGIIDFGDAVFAPLICEVATALAYQIGDGTDLLEHVVPFVAAYHQRIPLAPEEIALLPDLIATRMALTLTIAQWRASRYPDNREYLLRNVPRCWHSLQRIATYSHAQFLTRLQQVCPENAR”, the “soluble on expression in E. coli” value is reported as “not soluble”.
With “GPGMATEEMKKLATVMAIGTANPPNCYYQADFPDFYFRVTNSDHLINLKQKFKRLCENSRIEKRYLHVTEEILKENPNIAAYEATSLNVRHKMQVKGVAELGKEAALKAIKEWGQPKSKITHLIVCCLAGVDMPGADYQLTKLLDLDPSVKRFMFYHLGCYAGGTVLRLAKDIAENNKGARVLIVCSEMTTTCFRGPSETHLDSMIGQALFGDGAAAVIVGADPDLTVERPIFELVSTAQTIVPESHGAIEGHLLESGLSFHLYKTVPTLISNNIKTCLSDAFTPLNISDWNSLFWIAHPGGPAILDQVTAKVGLEKEKLKVTRQVLKDYGNMSSATVFFIMDEMRKKSLENGQATTGEGLEWGVLFGFGPGITVETVVLRSVPVIS” the “soluble on expression in E. coli” value was “soluble”.
With “MADSNSTVEQYRSLKRKMIEKKDLMRNNRTALRACILFNCLLGTSIRDAYNQFCRAVGSDVMEYREYEFWFYQFKRGDADFSDAISWNPNTIKLDELPIEVINTISSFSMPMERLTLRKVSKNLRTLIDSEPFCFQRIIVRIGHRTSYLQLDGYPGIEYIHCGADCNVLYGKRDKYVKNKNHVEYALTEAIQLMRNSNNHSKEFHVRAERSNDQELSMVLRKFFDSVEIELYAKKIVVSGFSFADTSSVLCHFKAGFLEEIQVLPGSGGPWTNVLVEMEQYKKAKVLKICTEFPVLLDIEDLLHFRRFEIAIKSDFTERMARKIRDVLTNSEHFEYAHIITQDLHHRTVIKFFNRNAENVFWNYGSMNYNNKKRLFHIEYNHRQFVIKKLNM” the “soluble on expression in E. coli” value was “not soluble”.
For “MPLDSPAKLEFPLHWAVYVDCKDELNELLKNKSTLEIDKIDPRGRTPLMLAVTLQHFDCARLLMDAGADASIPNKEMWSVSNEAVAQGNEQFIQEVIHHRDYQRANRGAHAMKRSLEKLAEVPDFFCEMNWDFSSWVPFLSQACPSDCHKIYKRGSSVRIDTTLVSFEGASWVRGNQSYIFRLSRNGYAEFIVLDHDERIAAVQELRDDDIFNEYRPLPSALDDRLRNTISTTYIDVENIGFERTSRGFLSWFSSGETNETVDGYDCKVLNASNVHLVTKRRFDHLSSEARARLAQEEASESKAVTSFKKMMSTNKTDENTTRDLYEEGLSPDSYLDPHYEFDTGCDIGKRREVVKKSNAFQATLWMADEYPLNLHDQIIPIVELMAVNSPHFARLHNFIRLQLPAGFPVKIEIPLFHIVSARIAFQNINSPGKHVTPIDNQNVDIEEEAFEIPDGYAIDDDGRYGITWEDDDDRNNRNNRNQVANGNTSRRGLGNNYSDDMLLQYAIQQSLLESTARQPSRVQEEEYVDILEQIESVPVNPETDFYRAIRDSQVEEDRRRREDEQYEEDLRKVLELSKAEQ”, the “soluble on expression in E. coli” value was “not soluble”.
For “MAHHHHHHMSSHALSSGSAPNVSSATTGTVAQQADSLTRNLLLGIPKEGLSPDSPEAADLQAAEAFVSDIQQEILAYDIANAKAIELYAVRWWSAVPFFGRHAKRALAAESTAAAAAAAGETHESTEAAAAAVAVDGSANSSEGHGLRLSPEEAAAALQSGGAYLHRQTSQTPRGFKVERTSALDPGQLSQLAGGASGASESKAVPVPKVNTWLFRRQHPSWVPLMQRWWVPWLCCGSIVLIWTPDVWKLRTLYFCDHQYALLRQSIHKAYWWATMRPEDYAEHIAAIAAERPSRVRGTSCPFE”, the “soluble on expression in E. coli” value was “not soluble”.
For “MKEIKFLHIADLHLDSPFIGLSTLPQPLFSAVQESTFQSLERIITIAIKEAVEFVLIAGDIYDSEDQSVRAQARFSKEMKRLEQAGIKAFIIHGNHDFIEKHKEKLQLPGNVHVFSEQVEMAAMETKNGAIVHIYGFSYGERHIRASRVNEYNKQGEADFHIGLLHGSELSSSEDHDVYAPFRIQEITKKGFDYWALGHIHKRQLLAESPSVYYPGNIQGRNRKESGEKGASIVTLSASNTTIDFIATSPIIWEEVIITLPENSEINTFYREITKLLATYQGQSNSFFLHVIVQMANKQKINTTDWLQMLQEETDLTGSTFIWVHKLTIELTNQSDLKNWHEQHLASKEITQAFEKLQDESAFYQTVEALYFESGVSRYLDDLSEEDRQLMLDAALTELGTVLKEVEGDEK”, the “soluble on expression in E. coli” value was “not soluble”.
In the case of “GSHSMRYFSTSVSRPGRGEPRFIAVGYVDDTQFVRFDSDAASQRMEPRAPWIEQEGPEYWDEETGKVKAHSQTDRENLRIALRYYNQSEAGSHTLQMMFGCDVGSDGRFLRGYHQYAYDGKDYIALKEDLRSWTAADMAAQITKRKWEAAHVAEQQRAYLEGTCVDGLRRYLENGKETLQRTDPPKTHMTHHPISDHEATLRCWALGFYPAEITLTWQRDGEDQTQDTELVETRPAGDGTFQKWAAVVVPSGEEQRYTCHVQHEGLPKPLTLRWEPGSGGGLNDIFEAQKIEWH”, the “soluble on expression in E. coli” value is reported as “soluble”.
For “MRKLKYQRDFFPLLHLNYGSNWRCGMDRIAYFKSLLEKNPDNPMVHYSLGLEYFKVKDYENAIKHLERYLELQEDEGAAYRTLAKCYEELGEFQKAIEVLEEGIRQAMKYNHPSMAQEYQQWIEELKGMAF”, the “soluble on expression in E. coli” value was “soluble”.
For “MDMPVDPNEPTYCLCHQVSYGEMIGCDNPDCSIEWFHFACVGLTTKPRGKWFCPRCSQER”, the “soluble on expression in E. coli” value was “soluble”.
In the case of “MSLDNIIIIQTKNPNYYAIKYAYKNQYEQFYEEELNIRKKLNYPPFNKIIRIIFRSKNEESAKQKCWEFFEKSKEFLQEEIEHLGPSEAIMKKISKNYRYNIIYLSKSYSLLEKLVNKTKEKVKMTSTVYIEIDYYPISEGHHHHHH”, the “soluble on expression in E. coli” value is reported as “not soluble”.
For “MSSPGGGTRFALVAGTTETAGRAGISAAGADPELMSVTPAADAELVTYGTPVRTDVTPVSPSGCPTPALVTRAAREVLGFDVTVVDGGLAEKTGAPTVSVGARPGKDIAEQDPVSTAHGAFAAARQFGQSLPADELYLGETIPGGTTTALGVLRALGEDGMVSSSLPENPTAQKSEVVAEGLQASSLEPGDAANEPKRAVRRMGDPVLATLAGLTAGAVESDTAVTLAGGSQCVAVAALVRHGGYEGPLGLATTSYVADDESADVRASVDRLDLDLTVTDPGFDRSDHVAMERFVAGEAKEGVGMGGALALADRAGIPMAEVRDRFAAIYDDLIGDAPTATAEERT”, the “soluble on expression in E. coli” value was “not soluble”.
For “MAHQEHFQFGYRRHRDQDRQDPARHPVVVVGAGPVGLSLAIDLAQRGQNVVLLDDADRIGEGSRAICFSKRALEVWDRLGVGAQMVEKGVVWQVGKIFRRDEMVYRFDLLPETGHKMPAFINLQQYYAEAFLVGRVQQLPQIDLRWRNKVTALAQHNDHAELTIETPDGPYRLAADYVIACDGARSSLRGMVGAEFAGEVFEDQFLIADVKMTAAFPTERWFWFDPPFHSGQSALLHRQPDDVWRIDLQIGPEADAAVERQPERVRPRIERMLGHGDFSFEWISIYKFQCRRMQRFLHERVIFAGDSAHQVSPFGARGANSGLEDGENLAWKLDLVLRGQAPASLLDSYDIERSQAADDNIRHSTRSTDFIAPHSKQERRLRDAVLALAHDVEFAKRMVNAGRLSTPSVYQSSLSTDDVDVWSSGPVPGAAMRDAPLRAADGTLVYLTEAFMQAGGGFVLLERANGAAAPVPQGVRSLRIGGDAPLRDDEGVFAARYDATPGAAYLLRPDGYVAARFRHPTQAAVDAALARACGRLEHHHHHH”, the “soluble on expression in E. coli” value was “not soluble”.

Source: the DeepSol protein solubility set
